Experimental data taken from patent US8916149B2, “Preventing and treating sepsis” (University of Rochester, priority 2008, dated 2014).
“Also recorded” adds a separate entry of the source.

Assays:
αVβ3 = biological target: T1, αVβ3 (Homo sapiens, UniProt P05106+P06756); experiment: Solid phase integrin ligand binding assay; details: 1 mM Mn2+, 1 mM Ca2+, 1 mM Mg2+
T1 construct: purchased US Biological, Swampscott, Mass
Procedure: The solid phase binding assay was performed using purified soluble human α3β1, α5β1, and αVβ3 (US Biological, Swampscott, Mass.). Two (2) μg/ml of soluble integrins were added to microtiter wells for capture with immobilized monoclonal antibody against β1 or β3 subunits (mAb TS2/6 for β1 and mAb BB10 (Chemicon, Temecula, Calif.) for β3 integrins). […] After washing, bound APC was chromogenically detected by peroxidase-streptavidin conjugate anti-PC (Diapharma, West Chester, Ohio) or chromogenic substrate S-2366 (Diapharma, West Chester, Ohio). To minimize dissociation, all wash buffers contained 1 mM Mn^2+, and <15 minutes elapsed between the end of binding and beginning of color development. Functional blocking antibodies for integrins were from Chemicon (Temecula, Calif.).
Among the neutrophil integrins that recognize the RGD motif, α3β1, α5β1, and αVβ3 are key in regulating neutrophil chemotaxis (Yauch et al., Mol. Biol. Cell 9:2751 (1998); Burns et al., J. Immunol. 166:4644 (2001); Sixt et al., J. Biol. Chem. 276:18878 (2001)). To test whether APC can bind directly to the integrins, an ELISA-like solid phase receptor-binding assay was performed (FIG. 2E). Soluble α3β1, α5β1, and αVβ3 were captured onto microtiter wells using mAbs specific for β1 or β3.

human neutrophils [1] = experiment: Under-agarose migration assay (directional migration); assay type: cell-based; details: 10 μg/ml rhAPC
Procedure: Delta T dishes (Bioptechs, Butler, Pa.) were coated with fibronectin (FN). Plates were then rinsed with the appropriate media and allowed to air-dry. Molten agarose (Seakem GTG, FMC Bioproducts, Rockland, Me.) was prepared as described (Harler et al., J Immunol., 162:6792 (1999)). Two milliliters of the resulting gel was added to each dish and allowed to solidify at 4° C. for 5 min. Three wells that were 2 mm apart were prepared in the agarose using a template and a beveled punch that was coated with polymixin B. Care was taken to ensure that the plate bottom was not scratched. Punch sections were removed with an aspirator, and the gel was then equilibrated for one hour at 37° C. The wells were then aspirated and loaded with […] of one of the following: PBS (left well), a suspension containing approximately 200,000 cells (middle well), or a solution containing 5 pmol of fMLP (right well). […] The dishes were incubated for 60 min at 37° C., and then fixed with 10% buffered formalin. Counts were then made of the number of cells that had migrated 1 mm towards the right well (towards fMLP, directional migration), 0.5 mm towards the left and right wells (“straddle”), and 1 mm towards the left well (random migration). The experiments were repeated three times per condition.

LPS treated mice = experiment: Neutrophil recruitment into airspace (BALF) after intranasal LPS; assay type: in vivo, mice (C57BL/6); details: 10 μg/mouse i.v. 2 hours after LPS
Procedure: Mice (C57BL/6, 6-8 weeks) were anesthetized with avertin and then intranasally administered 30 μg of LPS (Sigma-Aldrich, St. Louis, Mo.). […] Mice were sacrificed 4 hours later and bronchioalveolar lavage was harvested. Cells were fixed with 4% formaldehyde for 20 minutes. Cells were counted using microbeads (Polyscience, Niles, Ill.) by flow cytometry. Cells were stained with Gr-1 APC antibody (eBioscience, San Diego, Calif.) and collected by flow cytometry. Data were analyzed using FlowJo software (Tree Star, Ashland, Oreg.).

human neutrophils [2] = experiment: Neutrophil adhesion assay on immobilized fibronectin (FN); assay type: cell-based; details: 10 μg/ml protein
Procedure: The adhesion assay was carried out essentially as described (Vorup-Jensen et al., PNAS 102:1614 (2005)). Cover slips were coated with FN in coating buffer (150 mM NaCl/20 mM Tris.HCl, pH 9.0) for over night at 4° C. and for 4 hours at room temperature. Residual binding sites were blocked by incubation of the wells with 0.05% (wt/vol) polyvinylpyrrolidone in PBS for 30 minutes at room temperature. […] The cover slips were aspirated, and washed with L15 medium. […] Cells (250 μl) were then immediately added, and further incubated at 37° C. for 15 minutes. Unbound cells were then washed with warm L15 medium. The bound cells were then fixed with formaldehyde. For each experimental condition from three independent donors, five random phase-contrast images were obtained, and the number of cells in each well was scored from printed micrographs.

human neutrophils [3] = experiment: Intracellular Ca2+ measurement (Fluo-4); assay type: cell-based; details: 10 nM fMLP
Procedure: 1×10^7 cells/ml of human neutrophils were labeled with […] Fluo-4 AM (Molecular Probes, Eugene, Oreg.) at 37° C. for 30 minutes, then at room temperature for an additional 5 to 10 minutes. After washing twice, cells were resuspended to 4×10^6 cells/ml (6 ml) in F15 and incubated at RT for de-esterification. For measurements, cells (4×10^6) were spun down in a microtube (1 ml), resuspend in 1 ml of F15 at 37° C., transferred to a quartz cuvette containing a fluorometric stir bar and 1 ml of the same buffer at 37° C., and fluorescence signals were measured in the fluorometer.

[4] = system: lipopolysaccharide (LPS)-induced pulmonary inflammation; details: intravenous administration; cited from earlier work
[5] = system: patients with severe sepsis; details: subset of patients; cited from earlier work
human neutrophils [6] = experiment: Micropipette assay (directional migration toward fMLP tip); assay type: cell-based
Procedure: Delta T dishes were coated with human FN (50 μg/ml, BD Biosciences, San Jose, Calif.) for overnight at 4° C. and then for 4 h at room temperature. Plates were then rinsed with L-15 media. […] The cells were then added to FN-coated dishes in 1.5 ml of L-15 with 2 mg/ml of glucose. For neutrophil live cell staining, 2 μM Green Cell Tracker CMFDA (5-chloromethylfluorescein diacetate; Molecular Probes, Carlsbad, Calif.) was used. Temperature was maintained at 37° C. throughout the experiment using a FCS2 live-cell imaging chamber (Bioptechs, Butler, Pa.). Images were acquired for 30 to 60 minutes under a 10× objective lens using a Nikon TE-2000U inverted microscope. Phase contrast images were acquired every 5 seconds and fluorescence images every 30 seconds. Cell paths were traced using MetaVue™ imaging software (Molecular Devices Corporation, Downingtown, Pa.).
Directional migration was investigated using a micropipette assay to analyze the dynamics of neutrophil migration on different integrin ligands. Sterile Femtotips II micropipette tips (Eppendorf, Westbury, N.Y.) were loaded with 5 μl of 1 μM fMLP and then placed on the bottom of FN-coated delta T dishes that had been pre-warmed to 37° C. Image acquisition began within 2 minutes of tip placement.
The time-lapsed images of migrating neutrophils were taken under phase contrast microscopy. Each image was thresholded and binarized based on brightness to define the centroids of the neutrophils. The closest centroids between consecutive images were linked as a trajectory under the assumption that these centroids were made by the same neutrophil. The maximum distance between the closest centroids was also defined to preclude the artifacts due to cells moving into and out of the field of view.

T1 sequence (P06756 31-889 limits assumed): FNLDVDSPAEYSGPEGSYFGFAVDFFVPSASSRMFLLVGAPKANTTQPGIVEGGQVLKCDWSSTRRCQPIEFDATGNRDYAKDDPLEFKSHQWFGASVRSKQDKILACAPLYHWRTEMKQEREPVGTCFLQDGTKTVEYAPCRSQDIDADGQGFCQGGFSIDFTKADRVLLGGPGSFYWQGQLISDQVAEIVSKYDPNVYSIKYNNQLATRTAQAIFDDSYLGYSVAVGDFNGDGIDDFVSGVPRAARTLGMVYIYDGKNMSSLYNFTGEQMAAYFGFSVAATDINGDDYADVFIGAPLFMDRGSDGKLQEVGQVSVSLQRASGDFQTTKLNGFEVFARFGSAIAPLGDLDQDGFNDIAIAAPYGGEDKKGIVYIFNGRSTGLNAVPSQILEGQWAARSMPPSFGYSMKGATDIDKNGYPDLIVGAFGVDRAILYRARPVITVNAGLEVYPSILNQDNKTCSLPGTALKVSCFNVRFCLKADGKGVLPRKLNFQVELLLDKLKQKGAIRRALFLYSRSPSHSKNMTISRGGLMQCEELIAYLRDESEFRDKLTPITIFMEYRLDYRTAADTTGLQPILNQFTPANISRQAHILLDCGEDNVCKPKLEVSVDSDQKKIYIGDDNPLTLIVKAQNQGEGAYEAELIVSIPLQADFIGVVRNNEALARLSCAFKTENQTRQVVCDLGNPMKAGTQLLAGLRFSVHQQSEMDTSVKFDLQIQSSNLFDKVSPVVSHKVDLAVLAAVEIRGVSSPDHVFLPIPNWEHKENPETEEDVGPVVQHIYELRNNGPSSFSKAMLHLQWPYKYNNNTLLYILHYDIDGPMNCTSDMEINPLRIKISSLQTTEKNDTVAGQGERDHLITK
T1 sequence (P06756 891-1048 partner limits assumed): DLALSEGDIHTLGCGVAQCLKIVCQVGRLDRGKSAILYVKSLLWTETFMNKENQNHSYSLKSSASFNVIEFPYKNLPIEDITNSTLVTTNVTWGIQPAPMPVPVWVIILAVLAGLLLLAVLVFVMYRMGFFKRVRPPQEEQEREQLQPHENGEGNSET
T1 sequence (P05106 27-788): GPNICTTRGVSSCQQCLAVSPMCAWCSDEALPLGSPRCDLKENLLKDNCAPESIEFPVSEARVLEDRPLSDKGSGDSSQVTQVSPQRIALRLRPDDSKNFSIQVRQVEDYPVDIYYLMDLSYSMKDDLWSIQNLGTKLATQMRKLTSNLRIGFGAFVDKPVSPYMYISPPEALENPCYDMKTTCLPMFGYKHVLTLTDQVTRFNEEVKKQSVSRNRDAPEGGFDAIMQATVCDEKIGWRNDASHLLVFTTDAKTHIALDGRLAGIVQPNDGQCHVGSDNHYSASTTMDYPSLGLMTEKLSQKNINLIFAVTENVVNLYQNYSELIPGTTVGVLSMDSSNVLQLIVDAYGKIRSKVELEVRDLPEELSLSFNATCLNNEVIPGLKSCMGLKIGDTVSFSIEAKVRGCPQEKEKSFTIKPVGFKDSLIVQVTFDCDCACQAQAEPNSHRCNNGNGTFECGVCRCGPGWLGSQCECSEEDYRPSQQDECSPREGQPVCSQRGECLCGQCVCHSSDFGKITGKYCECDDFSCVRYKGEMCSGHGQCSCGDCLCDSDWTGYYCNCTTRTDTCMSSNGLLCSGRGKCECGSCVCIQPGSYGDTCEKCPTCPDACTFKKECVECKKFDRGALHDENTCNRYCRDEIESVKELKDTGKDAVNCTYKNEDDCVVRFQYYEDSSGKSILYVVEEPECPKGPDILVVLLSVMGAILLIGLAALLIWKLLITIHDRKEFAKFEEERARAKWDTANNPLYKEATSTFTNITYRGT

B1: rhAPC: Recombinant human activated protein C obtained from Eli Lilly; FDA-approved drug for severe sepsis (protein)
chain 1: ANSFLEELRHSSLERECIEEICDFEEAKEIFQNVDDTLAFWSKHVDGDQCLVLPLEHPCASLCCGHGTCIDGIGSFSCDCRSGWEGRFCQREVSFLNCSLDNGGCTHYCLEEVGWRRCSCAPGYKLGDDLLQCHPAVKFPCGRPWKRMEKKRSHL
chain 2: LIDGKMTRRGDSPWQVVLLDSKKKLACGAVLIHPSWVLTAAHCMDESKKLLVRLGEYDLRRWEKWELDLDIKEVFVHPNYSKSTTDNDIALLHLAQPATLSQTIVPICLPDSGLAERELNQAGQETLVTGWGYHSSREKEAKRNRTFVLNFIKIPVVPHNECSEVMSNMVSENMLCAGILGDRQDACEGDSGGPMVASFHGTWFLVGLVSWGEGCGLLHNYGVYTKVSRYLDWIHGHIRDKEAPQKSWAP
αVβ3
  direct binding to soluble αVβ3: bound
Human neutrophils [1]
  directional migration of neutrophils on FN towards fMLP: decreased
LPS treated mice
  neutrophil recruitment in the BALF: significantly reduced
Human neutrophils [2]
  fMLP-induced adhesion of human neutrophils to immobilized FN: significantly reduced; also recorded: abolished
Human neutrophils [3]
  increase in intracellular Ca2+ concentration by fMLP treatment: had no effect
[4]
  LPS-induced pulmonary inflammation: reduce
[5]
  mortality in patients with severe sepsis: significantly reduced
Human neutrophils [6]
  direction of movement: without significantly altering
Human neutrophils [6]; over 30 neutrophils in each group
  decrease of average lateral migration speed (S): more than 2.5 fold
Human neutrophils [6]; rhAPC pre-treatment
  neutrophil migration on FN toward the fMLP tip: dramatically decreased
